Results published in article PMC10397247.
Values belong to the binder of their own block, whether it stands above or below them.

Experiments:
4H3020-AA = biological target: T1, 4H3020-AA; experiment: two-hybrid library CCmax; settings: mean of both orientations;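 note: natural log of median RNA to DNA barcode read ratio; higher means stronger binding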
T1 chain: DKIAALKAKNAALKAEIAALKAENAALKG

4H355-AA = biological target: T2, 4H355-AA; experiment: two-hybrid library CCmax; settings: mean of both orientations;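 note: natural log of median RNA to DNA barcode read ratio; higher means stronger binding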
T2 chain: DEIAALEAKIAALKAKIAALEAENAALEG

4H3705-AA = biological target: T3, 4H3705-AA; experiment: two-hybrid library CCmax; settings: mean of both orientations;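 note: natural log of median RNA to DNA barcode read ratio; higher means stronger binding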
T3 chain: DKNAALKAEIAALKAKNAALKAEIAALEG

4H535-AA = biological target: T4, 4H535-AA; experiment: two-hybrid library CCmax; settings: mean of both orientations;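 note: natural log of median RNA to DNA barcode read ratio; higher means stronger binding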
T4 chain: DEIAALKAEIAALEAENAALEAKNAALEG

4H3651-AA = biological target: T5, 4H3651-AA; experiment: two-hybrid library CCmax; settings: mean of both orientations;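 note: natural log of median RNA to DNA barcode read ratio; higher means stronger binding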
T5 chain: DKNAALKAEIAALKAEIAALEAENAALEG

4H2898-AA = biological target: T6, 4H2898-AA; experiment: two-hybrid library CCmax; settings: mean of both orientations;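 note: natural log of median RNA to DNA barcode read ratio; higher means stronger binding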
T6 chain: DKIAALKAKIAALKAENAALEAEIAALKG

GCN2_T = experiment: two-hybrid library CCmax; settings: mean of both orientations
4H_BCR = biological target: T7, 4H_BCR; experiment: two-hybrid library CCmax; settings: mean of both orientations
T7 chain: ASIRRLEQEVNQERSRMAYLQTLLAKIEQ

4H3782-AA = biological target: T8, 4H3782-AA; experiment: two-hybrid library CCmax; settings: mean of both orientations
T8 chain: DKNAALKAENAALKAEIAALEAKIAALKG

4H2750-AA = biological target: T9, 4H2750-AA; experiment: two-hybrid library CCmax; settings: mean of both orientations
T9 chain: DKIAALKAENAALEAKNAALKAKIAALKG

4H2721-AA = biological target: T10, 4H2721-AA; experiment: two-hybrid library CCmax
T10 chain: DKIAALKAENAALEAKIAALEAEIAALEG

4H58-AA = biological target: T11, 4H58-AA; experiment: two-hybrid library CCmax; settings: mean of both orientations
T11 chain: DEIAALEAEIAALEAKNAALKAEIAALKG

4H_GCN4 = experiment: two-hybrid library CCmax
4H_APH = biological target: T12, 4H_APH; experiment: two-hybrid library CCmax; settings: mean of both orientations
T12 chain: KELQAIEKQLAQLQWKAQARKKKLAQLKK

4H486-AA = biological target: T13, 4H486-AA; experiment: two-hybrid library CCmax; settings: mean of both orientations
T13 chain: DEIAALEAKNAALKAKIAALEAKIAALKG

4H895-AA = biological target: T14, 4H895-AA; experiment: two-hybrid library CCmax; settings: mean of both orientations
T14 chain: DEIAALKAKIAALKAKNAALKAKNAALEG

4H465-AA = biological target: T15, 4H465-AA; experiment: two-hybrid library CCmax; settings: mean of both orientations
T15 chain: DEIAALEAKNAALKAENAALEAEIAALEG

4H3365-AA = biological target: T16, 4H3365-AA; experiment: two-hybrid library CCmax; settings: mean of both orientations
T16 chain: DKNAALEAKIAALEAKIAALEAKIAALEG

4H2839-bH = biological target: T17, 4H2839-bH; experiment: two-hybrid library CCNG1
T17 chain: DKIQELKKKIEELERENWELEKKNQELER

4H2503-bH = biological target: T18, 4H2503-bH; experiment: two-hybrid library CCNG1
T18 chain: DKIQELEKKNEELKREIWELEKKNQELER

4H348-bH = biological target: T19, 4H348-bH; experiment: two-hybrid library CCNG1
T19 chain: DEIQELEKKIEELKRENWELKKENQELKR

4H741-bH = biological target: T20, 4H741-bH; experiment: two-hybrid library CCNG1
T20 chain: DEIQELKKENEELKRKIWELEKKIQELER

4H619-bH = biological target: T21, 4H619-bH; experiment: two-hybrid library CCNG1
T21 chain: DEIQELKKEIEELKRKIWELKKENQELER

4H319-bH = biological target: T22, 4H319-bH; experiment: two-hybrid library CCNG1
T22 chain: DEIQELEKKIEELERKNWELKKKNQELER

4H2473-bH = biological target: T23, 4H2473-bH; experiment: two-hybrid library CCNG1
T23 chain: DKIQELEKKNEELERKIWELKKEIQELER

4H3277-bH = biological target: T24, 4H3277-bH; experiment: two-hybrid library CCNG1
T24 chain: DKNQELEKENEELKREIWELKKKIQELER

4H2915-bH = biological target: T25, 4H2915-bH; experiment: two-hybrid library CCNG1
T25 chain: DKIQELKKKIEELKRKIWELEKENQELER

4H2717-bH = biological target: T26, 4H2717-bH; experiment: two-hybrid library CCNG1
T26 chain: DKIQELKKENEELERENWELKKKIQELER

4H477-bH = biological target: T27, 4H477-bH; experiment: two-hybrid library CCNG1
T27 chain: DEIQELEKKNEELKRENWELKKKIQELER

4H2588-bH = biological target: T28, 4H2588-bH; experiment: two-hybrid library CCNG1
T28 chain: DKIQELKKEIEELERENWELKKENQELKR

4H40-bH = biological target: T29, 4H40-bH; experiment: two-hybrid library CCNG1
T29 chain: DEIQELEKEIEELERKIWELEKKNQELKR

4H3057-bH = biological target: T30, 4H3057-bH; experiment: two-hybrid library CCNG1
T30 chain: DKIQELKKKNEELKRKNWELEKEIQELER

4H2692-bH = biological target: T31, 4H2692-bH; experiment: two-hybrid library CCNG1
T31 chain: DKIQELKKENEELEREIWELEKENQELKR

4H492-bH = biological target: T32, 4H492-bH; experiment: two-hybrid library CCNG1
T32 chain: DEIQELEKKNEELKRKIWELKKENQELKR

Sequence of 4H_GCN4 (chain, as listed by the source): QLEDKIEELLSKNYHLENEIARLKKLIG

- interaction score (4H3020-AA): -1.05
- interaction score (4H355-AA): -0.56
- interaction score (4H3705-AA): 1.59
- interaction score (4H535-AA): -1.55
- interaction score (4H3651-AA): -1.51
- interaction score (4H2898-AA): 0.892
- interaction score (GCN2_T): -0.835
- interaction score (4H_BCR): -1.38
- interaction score (4H3782-AA): 1.73
- interaction score (4H2750-AA): 0.408
- interaction score (4H2721-AA): 0.879
- interaction score (4H58-AA): 0.0667
- interaction score (4H_GCN4): -1.31
- interaction score (4H_APH): -2.01
- interaction score (4H486-AA): 2.11
- interaction score (4H895-AA): -1.62
- interaction score (4H465-AA): -0.696
- interaction score (4H3365-AA): -1.58
Binder: DKIAALKAENAALEAKIAALEAEIAALEG [4H2721-AA]

- interaction score (4H2839-bH): -0.0772
- interaction score (4H2503-bH): 0.0804
- interaction score (4H348-bH): -0.545
- interaction score (4H741-bH): -0.491
- interaction score (4H619-bH): -2.35
- interaction score (4H319-bH): -1.01
- interaction score (4H2473-bH): 1.05
- interaction score (4H3277-bH): -0.651
- interaction score (4H2915-bH): 0.134
- interaction score (4H2717-bH): -0.241
- interaction score (4H477-bH): -1.42
- interaction score (4H2588-bH): -0.165
- interaction score (4H40-bH): -0.286
- interaction score (4H3057-bH): 0.309
- interaction score (4H2692-bH): 0.549
- interaction score (4H492-bH): 0.0302
Binder: DKIQELEKKNEELERKIWELKKEIQELER [4H2473-bH]
